Assays:
Experiment in all cases: double-antibody sandwich ELISA, R001 as capture and HRP-R001 as detection, mixture of HPV types
HPV11 VLP = target: T1, HPV11 VLP (Human papillomavirus type 11, UniProt P04012 1-501)
T1 construct: also called HPV11完整VLP蛋白
T1 sequence: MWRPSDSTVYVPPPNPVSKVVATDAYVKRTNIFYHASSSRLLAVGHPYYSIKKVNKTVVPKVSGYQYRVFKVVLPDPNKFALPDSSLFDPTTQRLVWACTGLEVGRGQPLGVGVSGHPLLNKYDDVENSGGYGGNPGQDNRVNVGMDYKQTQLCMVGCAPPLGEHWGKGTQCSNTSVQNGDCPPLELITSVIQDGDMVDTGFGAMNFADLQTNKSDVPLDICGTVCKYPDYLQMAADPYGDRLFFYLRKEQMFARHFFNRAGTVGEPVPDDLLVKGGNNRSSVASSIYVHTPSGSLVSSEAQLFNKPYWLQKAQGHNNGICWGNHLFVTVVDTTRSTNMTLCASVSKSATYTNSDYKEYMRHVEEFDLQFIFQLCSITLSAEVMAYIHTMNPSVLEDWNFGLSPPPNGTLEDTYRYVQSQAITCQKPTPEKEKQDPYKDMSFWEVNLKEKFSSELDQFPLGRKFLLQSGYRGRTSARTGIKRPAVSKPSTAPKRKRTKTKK

HPV33 VLP = target: T2, HPV33 VLP (Human papillomavirus type 33, UniProt P06416 1-499)
T2 construct: also called HPV33完整VLP蛋白
T2 sequence: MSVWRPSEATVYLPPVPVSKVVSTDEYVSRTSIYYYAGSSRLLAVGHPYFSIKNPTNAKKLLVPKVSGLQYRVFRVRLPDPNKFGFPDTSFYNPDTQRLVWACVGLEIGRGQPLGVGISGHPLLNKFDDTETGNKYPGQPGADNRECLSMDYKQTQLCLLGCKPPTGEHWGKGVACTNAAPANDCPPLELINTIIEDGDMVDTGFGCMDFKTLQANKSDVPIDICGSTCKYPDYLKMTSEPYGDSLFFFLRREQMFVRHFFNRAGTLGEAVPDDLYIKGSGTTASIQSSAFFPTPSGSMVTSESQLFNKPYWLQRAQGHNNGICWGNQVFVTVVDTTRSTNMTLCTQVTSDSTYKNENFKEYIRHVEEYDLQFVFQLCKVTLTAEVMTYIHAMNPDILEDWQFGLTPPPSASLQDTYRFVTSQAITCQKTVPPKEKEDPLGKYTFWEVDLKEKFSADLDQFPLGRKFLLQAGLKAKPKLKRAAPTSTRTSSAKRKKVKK

HPV39 VLP = target: T3, HPV39 VLP (Human papillomavirus type 39, UniProt P24838 1-505)
T3 construct: also called HPV39完整VLP蛋白
T3 sequence: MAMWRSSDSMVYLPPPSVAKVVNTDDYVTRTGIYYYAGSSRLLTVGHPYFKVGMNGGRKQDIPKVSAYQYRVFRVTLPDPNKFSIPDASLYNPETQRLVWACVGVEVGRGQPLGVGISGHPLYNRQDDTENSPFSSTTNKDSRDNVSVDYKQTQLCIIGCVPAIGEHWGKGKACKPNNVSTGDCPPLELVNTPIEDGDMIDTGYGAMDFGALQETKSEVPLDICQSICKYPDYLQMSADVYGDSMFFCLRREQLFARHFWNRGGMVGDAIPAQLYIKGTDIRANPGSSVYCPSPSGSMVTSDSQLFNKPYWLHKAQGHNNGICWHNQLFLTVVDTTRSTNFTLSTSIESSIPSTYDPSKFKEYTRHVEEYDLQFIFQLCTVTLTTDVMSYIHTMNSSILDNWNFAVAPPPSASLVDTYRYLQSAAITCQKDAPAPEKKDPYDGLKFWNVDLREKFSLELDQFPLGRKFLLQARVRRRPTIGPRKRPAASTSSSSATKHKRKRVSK

HPV31 VLP = target: T4, HPV31 VLP (Human papillomavirus type 31, UniProt P17388 1-504)
T4 construct: also called HPV31完整VLP蛋白
T4 sequence: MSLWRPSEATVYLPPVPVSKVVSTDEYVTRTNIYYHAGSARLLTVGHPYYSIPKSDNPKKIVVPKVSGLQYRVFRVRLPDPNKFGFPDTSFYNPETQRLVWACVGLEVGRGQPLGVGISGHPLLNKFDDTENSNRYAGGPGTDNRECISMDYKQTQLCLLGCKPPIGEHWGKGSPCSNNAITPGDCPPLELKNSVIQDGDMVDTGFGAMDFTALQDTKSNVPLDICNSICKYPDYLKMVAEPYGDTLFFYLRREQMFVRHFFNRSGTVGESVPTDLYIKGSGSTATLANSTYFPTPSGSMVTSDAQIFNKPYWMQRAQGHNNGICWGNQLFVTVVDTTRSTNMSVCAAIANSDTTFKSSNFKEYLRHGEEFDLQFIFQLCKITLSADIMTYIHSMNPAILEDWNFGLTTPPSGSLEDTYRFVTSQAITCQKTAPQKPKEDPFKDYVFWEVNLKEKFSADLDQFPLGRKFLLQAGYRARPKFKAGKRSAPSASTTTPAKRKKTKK

HPV35 VLP = target: T5, HPV35 VLP (Human papillomavirus type 35, UniProt P27232 1-502)
T5 construct: also called HPV35完整VLP蛋白
T5 sequence: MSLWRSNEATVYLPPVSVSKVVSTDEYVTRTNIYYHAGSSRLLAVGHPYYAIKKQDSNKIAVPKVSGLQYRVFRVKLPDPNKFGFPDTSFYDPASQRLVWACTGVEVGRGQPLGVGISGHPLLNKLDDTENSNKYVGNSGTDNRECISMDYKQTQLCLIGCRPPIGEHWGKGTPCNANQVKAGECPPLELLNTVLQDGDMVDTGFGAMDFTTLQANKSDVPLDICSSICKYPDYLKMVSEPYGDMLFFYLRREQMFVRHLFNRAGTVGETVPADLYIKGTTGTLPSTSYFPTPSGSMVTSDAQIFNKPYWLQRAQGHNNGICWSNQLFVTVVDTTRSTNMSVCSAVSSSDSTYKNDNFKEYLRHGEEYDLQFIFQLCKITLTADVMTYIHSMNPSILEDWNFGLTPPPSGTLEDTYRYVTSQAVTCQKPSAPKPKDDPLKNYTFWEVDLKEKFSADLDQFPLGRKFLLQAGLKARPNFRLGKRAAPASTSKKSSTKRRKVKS

B1: HPV 16 R001 (antibody, V domains shown)
VH: QSVKESEGRLVTPGTPLTLTCTASGFTMSRYHMTWVRQAPGKGLEWIGIIYARNSDTYYANWAKGRFTISKTSTTVDLKITSPTIEDTATYFCARVDSDSSGAFDRLDLWGQGTLVTVSS
VL: DPMLTQTAASVEVAVGGTVTIKCQASQSIGGYLSWYQQKPGQRPKLLIYRASTLASGVPSRFKGSGSGTEYTLTFSGVECADAAAYYCQQGYTSSDINNAFGGGTEVVVK
notes: An HRP-labelled form served as detection antibody in the sandwich ELISA; also called HPV16.001; 单克隆抗体HPV 16 R001
HPV11 VLP
  binding result: no binding (tested: 50ng/mL，25ng/mL，12.5ng/mL)
HPV33 VLP
  binding result: no binding (tested: 50ng/mL，25ng/mL，12.5ng/mL)
HPV39 VLP
  binding result: no binding (tested: 50ng/mL，25ng/mL，12.5ng/mL)
HPV31 VLP
  binding result: no binding (tested: 50ng/mL，25ng/mL，12.5ng/mL)
HPV35 VLP
  binding result: no binding (tested: 50ng/mL，25ng/mL，12.5ng/mL)

From patent publication CN112125972A (SINOCELLTECH LTD, dated 2020)
